Publication PMC2725191

Biological target: Biotinylated tubulin (bovine brain tubulin labelled with NHS-LC-biotin), held on a streptavidin layer (bovine) (UniProt Q6B856)
Assay: dual polarization interferometry

rate of thickness increase after the inflection point (microtubule growth): 0.436 nm/min
Substance: Tubulin (alpha/beta heterodimer), purified from bovine brain (from UniProt Q6B856 1-445) (complex)
